{
  "source": "paper PMC5382683",
  "about": "“Identified of a novel cis-element regulating the alternative splicing of LcDREB2”",
  "molecular_target": "T1, RSZp21b (Oryza sativa, UniProt Q6K4N0 1-185)",
  "T1 sequence": "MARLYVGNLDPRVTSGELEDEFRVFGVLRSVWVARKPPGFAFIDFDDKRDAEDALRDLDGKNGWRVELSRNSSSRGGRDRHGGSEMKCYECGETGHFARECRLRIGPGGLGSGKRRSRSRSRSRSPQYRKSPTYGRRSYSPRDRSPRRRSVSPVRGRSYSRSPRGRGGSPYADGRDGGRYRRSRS",
  "assay": "EMSA; LightShift Chemiluminescent EMSA Kit (Pierce 20158) per manufacturer; 100-fold unlabeled probe as competitor; buffer, salt, pH, temperature not stated",
  "details": "protein: recombinant; tags: His (pET30a, Ni column)",
  "data": [
    {"binder": "ACUCUUGGCGCAGCAAAAGGGAGAUGCGC (ssRNA)", "note": "[E3-2]", "values": [
      {"measurement": "binding result", "value": "binds"}
    ]}
  ]
}
